Test results published in patent US20250009876A1 (H LUNDBECK A S, published 2025).
Where two headings read alike, the source gives them in different places.

T1: PACAP38 (Pituitary Adenylate Cyclase-Activating Polypeptide, 38 amino acids) (human, not fully specified; the C-terminal lysine is amidated)
T1 peptide: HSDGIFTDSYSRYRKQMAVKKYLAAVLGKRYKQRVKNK

T2: VIP (Vasoactive Intestinal Peptide) (human)
T2 construct: also called human VIP
T2 peptide: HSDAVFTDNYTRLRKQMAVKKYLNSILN

T3: PACAP27 (Pituitary Adenylate Cyclase-Activating Polypeptide, 27 amino acids) (human, the C-terminal leucine is amidated)
T3 peptide: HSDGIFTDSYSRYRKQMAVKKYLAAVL

T4: PAC1-R on PAC1-R-expressing PC-12 cells (UniProt P32215 20-523)
T4 construct: whole, on cells; also called PAC1 receptor
T4 sequence (looked up): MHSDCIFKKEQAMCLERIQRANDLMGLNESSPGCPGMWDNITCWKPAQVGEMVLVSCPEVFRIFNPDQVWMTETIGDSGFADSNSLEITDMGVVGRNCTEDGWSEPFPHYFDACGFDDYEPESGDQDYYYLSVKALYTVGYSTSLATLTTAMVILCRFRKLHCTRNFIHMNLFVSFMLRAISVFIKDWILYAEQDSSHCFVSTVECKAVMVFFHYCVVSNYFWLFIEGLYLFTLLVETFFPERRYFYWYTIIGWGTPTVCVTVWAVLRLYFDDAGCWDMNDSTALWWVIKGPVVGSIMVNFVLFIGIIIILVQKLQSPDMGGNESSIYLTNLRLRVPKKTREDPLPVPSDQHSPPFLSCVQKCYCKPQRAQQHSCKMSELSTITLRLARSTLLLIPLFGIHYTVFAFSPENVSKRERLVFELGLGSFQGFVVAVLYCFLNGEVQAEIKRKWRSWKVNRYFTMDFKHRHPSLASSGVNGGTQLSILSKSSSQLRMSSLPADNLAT


Assays:
[1] = molecular target: T1, PACAP38 (Pituitary Adenylate …); experiment: cell-based or functional assay
[2] = molecular target: T2, VIP (Vasoactive Intestinal Peptide); experiment: SPR (ProteOn XPR36), antibody amine-coupled, peptide analyte, 1:1 Langmuir fit; SPR, direct binding of VIP to the antibody; weak, KD 3.1E-07 M
[3] = molecular target: T1, PACAP38 (Pituitary Adenylate …); experiment: inhibition of 30 nM biotinylated PACAP38 binding to PAC1-R-expressing PC-12 cells, Eu-streptavidin TRF
Description: To identify antibodies that block PACAP38 binding to PAC1-R-expressing cells, adherent PC-12 cells (ATCC, Manassas, VA) expressing PAC1-R were used in a Europium-based PAC1-R-expressing cells binding assay. Antibody solutions were incubated with N-terminal biotinylated PACAP38 at 10× the final concentration (100 nM or 30 nM) for 1 hr, then added to PC-12 cells that were plated 24 hrs prior in black clear bottom 96 well plates (COSTAR™, Corning Incorporated, Corning, NY) and further incubated for 1 hr at room temperature. After three washes, the cells were incubated with 20 μl Europium-labeled streptavidin (PerkinElmer, Waltham, MA) for 1 hr at room temperature. Cells were washed three times, then 20 μl DELFIA® Enhancement solution (PerkinElmer, Waltham, MA) was added to each well and incubated for 15 minutes with gentle shaking. Plates were read (Time Resolved Fluorescence (“TRF”)) on SPECTRAMAX® (Molecular Devices, Sunnyvale, CA) plate reader.
FIGS. 14A-14H are representative of the inhibition curves obtained by this method (results are shown for Ab10, Ab20, Ab21, Ab1.H, Ab10.H, Ab21.H, Ab22, and Ab23, respectively) wherein the PAC1-R expressing cells were PC-12 cells.

[4] = molecular target: T1, PACAP38 (Pituitary Adenylate …); experiment: cell-based or functional assay
[5] = molecular target: T1, PACAP38 (Pituitary Adenylate …); experiment: HTRF binding assay, antibody dilution series on 35 nM biotinylated PACAP38
Description: In parallel, 10 μl of an antibody dilution series (highest final concentration of 100 nM) were incubated with 10 μl of N-terminal or C-terminal biotinylated PACAP38 (35 nM final) alone, or in combination with either PACAP27 (350 nM final) or VIP (350 nM final), i.e., 10× PACAP27 or 10× VIP, respectively, in a HTRF plate. 20 μl of Eu³⁺ cryptate labeled anti-hu Fc donor and 20 μl of d2-labeled streptavidin acceptor were added to each well and incubated for 1 hour at room temperature. Fluorescence was measured at 620 and 665 nm with a delay of 300 usec.
EC₅₀ values, i.e. the concentration of an antibody that yields a response halfway between the baseline and the maximum value within a specified time period, were computed for each antibody based upon their binding curves and are shown in Table 1 below. […] A humanized form of antibody Ab1 identified by an appended “.H”, i.e., Ab1.H also bound PACAP38 with high affinity.

[6] = molecular target: T3, PACAP27 (Pituitary Adenylate …); experiment: cell-based or functional assay
[7] = molecular target: T1, PACAP38 (Pituitary Adenylate …); experiment: cell-based or functional assay
[8] = molecular target: T3, PACAP27 (Pituitary Adenylate …); experiment: SPR (ProteOn XPR36), antibody amine-coupled, peptide analyte, 1:1 Langmuir fit
Description: (§1) Binding affinities of monoclonal antibodies for human PACAP were estimated using SPR on the PROTEON™ XPR36 (Bio-Rad, Hercules, CA). Antibody was immobilized to the surface of general amine coupling (“GLC” or “GLM”) Chips (Bio-Rad, Hercules, CA). […] Antigen (ranging from 1.23 nM to 100 nM) was typically run sequentially with association times of 2-4 minutes and dissociation times of 3-120 minutes grouped with the PROTEON™ Manager Software (v3.1.0.6 (Bio-Rad, Hercules, CA)) and fitted using a 1:1 Langmuir binding model. Surfaces were regenerated between analyte queries using 0.85% Phosphoric Acid.

[9] = molecular target: T1, PACAP38 (Pituitary Adenylate …); experiment: as above
Description: as §1

[10] = molecular target: T4, PAC1-R on PAC1-R-expressing PC-12 cells; experiment: cell surface binding assay (DELFIA TRF): antibody pre-incubated with PACAP38, added to PAC1-R-expressing PC-12 cells, detected with Eu anti-human IgG
Description: Cells were initially seeded at 1×10⁵ cells/well in a solution of complete RPMI (“cRPMI”: RPMI medium supplemented with 10% sterile heat-inactivated FBS and 1% sterile antibiotic/antimycotic)+10% FBS, and the plates were allowed to incubate overnight at 37° C. On the day of the binding assay, antibodies at an initial concentration of 15 μg/ml were diluted at a 1:3 ratio in DELFIA® binding buffer (50 mM Tris, 150 mM NaCl, 0.1% azide, 2% horse serum) (Perkin-Elmer, Waltham, MA) to a total volume of 60 μL in a separate 96 well round bottom plate. PACAP38 was prepared for the binding assay by diluting it in DELFIA® binding buffer to a concentration of 200 nM, and then 60 μl of the diluted PACAP38 was added to each of the antibody-containing wells to form antibody: antigen complexes. Following addition of PACAP38, the antibody: antigen complexes were incubated at room temperature on a shaker for 1 hour. Separately, the PC-12 cells were prepared for addition of antibody: antigen complexes by washing the cells two times with DELFIA® wash buffer (50 mM Tris, 150 mM NaCl, 0.1% Azide) (Perkin-Elmer, Waltham, MA). After washing the cells two times and following the 1 hour room temperature incubation of the antibody: antigen complexes, 50 μl of the antibody: antigen complex was added to each well containing cells. The mixtures of cells and antibody: antigen complexes were then incubated for 30 minutes at room temperature. Following this 30 minute incubation, each mixture was washed two times with DELFIA® wash buffer (Perkin-Elmer, Waltham, MA).
DELFIA® Europium labeled anti-human IgG detection reagent (Cat #1244-330, Perkin-Elmer, Waltham, MA) was diluted to a concentration of 300 ng/ml in DELFIA® Binding Buffer. Following dilution, 50 μl of the anti-human IgG detection reagent was added to each well containing cells, and a 30 minute incubation at room temperature followed this addition of IgG detection reagent. After completion of the 30 minute room temperature incubation, the cells were then washed two times with DELFIA® wash buffer. Next, 50 μl of DELFIA® Enhancement Solution (Cat #1244-105, Perkin-Elmer, Waltham, MA) was added to each well containing cells for a final 15 minute room temperature incubation with shaking. The plates were then read (TRF, excitation 330 nm, emission 620 nm) on a SPECTRAMAX® (Molecular Devices, Sunnyvale, CA) plate reader.

[11] = molecular target: T3, PACAP27 (Pituitary Adenylate …); experiment: inhibition of 0.1 nM 125I-PACAP27 binding to membranes with human PAC1-R long isoform, filter binding
Description: To identify antibodies that block PACAP27 binding to PAC1-R, antibodies at an initial concentration of 30 nM were diluted in incubation buffer (50 mM Hepes pH 7.4, 1 mM CaCl₂, 5 mM MgCl₂, 0.2% BSA) and serial 1:3 dilutions were performed. Antibody dilutions (30 nM, 10 nM, 3 nM, 1 nM, 0.3 nM, 0.1 nM, 0.03 nM, 0.01 nM, 0.003 nM and 0.001 nM) were then mixed and pre-incubated at 25° C. for 30 minutes with 0.1 nM of ¹²⁵I-labelled PACAP27 in incubation buffer. The antibody: ¹²⁵I-labelled PACAP27 mixture was then added to 0.5 μg aliquots of cell membranes derived from Chem-1 cells expressing human recombinant PAC1-R long isoform in incubation buffer. The mixture was then incubated for 1 hour at 25° C. Following incubation, the samples were filtered and washed. Afterward, the filters were counted to quantitate ¹²⁵I-labelled PACAP27. As an experimental control, non-specific binding to the cell membranes was estimated using 0.1 μM of […] PACAP27.

[12] = molecular target: T2, VIP (Vasoactive Intestinal Peptide); experiment: SPR (ProteOn XPR36), antibody amine-coupled, peptide analyte, 1:1 Langmuir fit
[13] = molecular target: T3, PACAP27 (Pituitary Adenylate …); experiment: cell-based or functional assay
[14] = molecular target: T1, PACAP38 (Pituitary Adenylate …); experiment: cell-based or functional assay

Row | Inhibition of 1 nM PACAP38-induced human VPAC2-R mediated cAMP increase IC50 (pM) [1] [pM] | IC50 [3] [pM] | Inhibition of 5 nM PACAP38-induced human VPAC1-R mediated cAMP increase IC50 (pM) [4] [pM] | Inhibition of 0.1 nM PACAP27-induced PAC1-R mediated cAMP increase IC50 (pM) [6] [pM] | Inhibition of 0.1 nM PACAP38-induced PAC1-R mediated cAMP increase IC50 (pM) [7] [pM] | Kd [8] [pM] | koff [8] [s⁻¹] | kon [8] [M⁻¹ s⁻¹] | Kd [9] [pM] | koff [9] [s⁻¹] | kon [9] [M⁻¹ s⁻¹] | IC50 [11] [pM] | Kd [12] [pM] | koff [12] [s⁻¹] | kon [12] [M⁻¹ s⁻¹] | Binder | other results
1 | 5220 | 20300 | 2850 | 140 | 239 | ≤ 13 | ≤ 1e-05 | 790000 | ≤ 27 | ≤ 1e-05 | 370000 |  |  |  |  | Ab21 (antibody, human IgG1, kappa, N297A, V domains shown, Full-length anti-PACAP antibody; rabbit/human chimeric) VH: QSVEESGGRLVTPGTPLTLTCTVSGIDLSSYYMTWVRQAPGKGLEWVGFIDAGGSAYYATWAKGRFTISKASTTVDLKITSPTTEDTATYFCARDLDLWGPGTLVTVSS VL: AAVLTQTPSPVSAAVGGTVSISCKSSESVYGDYLAWFQQKPGQPPKQLIYDASTLASGVPSRFKGSGSGTQFTLTISGVQCDDAATYYCAGGYVSAGVAFGGGTEVVVKR | Kd [2]: 310000 pM; koff [2]: 0.00054 s⁻¹; kon [2]: 1700 M⁻¹ s⁻¹; EC50 [5]: 840 pM
2 | 301 |  | 1520 |  |  | ≤ 59 | ≤ 1e-05 | 170000 | ≤ 22 | ≤ 1e-05 | 450000 | 210 | 91000 | 0.013 | 140000 | Ab10.H3 (antibody, human IgG1, kappa, N297A, Full-length humanized variant of Ab10) heavy: not shown light: DIQLTQSPSTLSASVGDRVTITCQSSESVYGNYLAWFQQKPGKAPKFLIYEASKLESGVPSRFSGSGSGTEFTLTISSLQPDDFATYYCAGGDISEGVAFGGGTKVEIKRTVAAPSVFIFPPSDEQLKSGTASVVCLLNNFYPREAKVQWKVDNALQSGNSQESVTEQDSKDSTYSLSSTLTLSKADYEKHKVYACEVTHQGLSSPVTKSFNRGEC | binding result [10]: no binding (tested: about 70 nM); Inhibition of 1 nM PACAP27-induced PAC1-R mediated cAMP increase IC50 (pM) [13]: 321 pM; Inhibition of 0.1 nM PACAP38-induced PAC1-R mediated cAMP increase IC50 (pM) [14]: 30.7 pM
3 | 1510 | 12700 | 2100 | 204 | 246 | ≤ 16 | ≤ 1e-05 | 630000 | ≤ 21 | ≤ 1e-05 | 480000 | 390 | 440000 | 0.059 | 140000 | Ab21.H (antibody, human IgG1, kappa, N297A, Full-length humanized variant of Ab21) heavy: not shown light: DAQLTQSPSTLSASVGDRVTITCKSSESVYGDYLAWFQQKPGKAPKQLIYDASTLASGVPSRFSGSGSGTEFTLTISSLQPDDFATYYCAGGYVSAGVAFGGGTKVEIKRTVAAPSVFIFPPSDEQLKSGTASVVCLLNNFYPREAKVQWKVDNALQSGNSQESVTEQDSKDSTYSLSSTLTLSKADYEKHKVYACEVTHQGLSSPVTKSFNRGEC | 
